Results: patent US20240336672A1

Legend:
Assay in all cases: flow cytometry (Mock 2.5)
β (SARS-CoV-2) = target: β (SARS-CoV-2)
ε (SARS-CoV-2) = target: ε (SARS-CoV-2)
α (SARS-CoV-2) = target: α (SARS-CoV-2)
[1] = target: SARS-CoV-2 δ variant spike protein, cell-expressed (SARS-CoV-2)
γ (SARS-CoV-2) = target: γ (SARS-CoV-2)
κ (SARS-CoV-2) = target: κ (SARS-CoV-2)
ι (SARS-CoV-2) = target: ι (SARS-CoV-2)

Adintrevimab (antibody), sequence (VH): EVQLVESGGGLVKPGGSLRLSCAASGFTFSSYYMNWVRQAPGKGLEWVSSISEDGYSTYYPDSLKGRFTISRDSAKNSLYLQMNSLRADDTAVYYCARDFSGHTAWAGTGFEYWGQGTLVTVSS
Adintrevimab (antibody), sequence (VL): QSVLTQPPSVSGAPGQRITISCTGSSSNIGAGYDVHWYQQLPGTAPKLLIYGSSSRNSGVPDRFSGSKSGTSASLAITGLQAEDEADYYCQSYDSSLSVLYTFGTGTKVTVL

Row | Substance | log10 ΔgMFI (β (SARS-CoV-2)) | log10 ΔgMFI (ε (SARS-CoV-2)) | log10 ΔgMFI (α (SARS-CoV-2)) | log10 ΔgMFI [1] | log10 ΔgMFI (γ (SARS-CoV-2)) | log10 ΔgMFI (κ (SARS-CoV-2)) | log10 ΔgMFI (ι (SARS-CoV-2))
1 | Adintrevimab (antibody) | 3.9 | 4.5 | 4.3 | 4.5 | 4.5 | 4.8 | 4.9
2 | BAM (antibody) | 2.5 |  | 4.4 | 2.5 | 2.5 | 3.5 | 2.5
3 | CAS (antibody) | 3.1 | 4.6 | 4.4 | 4.6 |  | 4.9 | 4.9
4 | Cilgavimab (antibody) |  |  | 4.4 |  | 4.7 | 4.7 | 4.9
5 | ETE (antibody) | 2.5 | 4.5 | 4.2 | 4.5 | 2.5 | 4.7 | 4.8
6 | TIX (antibody) | 3.9 | 4.7 | 4.5 | 4.7 | 4.6 | 4.9 | 4.9
